US20240165208A1, “Mutant KRAS-Targeting Peptide and Use Thereof” (GJMEDI INC., priority 2020, published 2024)
No end group written: not given here.

B1: anticancer peptide GJ101 (peptide)
peptide: LYDVA
notes: Synthesised by solid phase peptide synthesis and purified by RP-HPLC to 95% or more; said to consist of 5 amino acids and to be derived from H-REV107; also called mutant KRAS-targeting anticancer peptide

Tests used:
[1] = test system: AsPC-1 cells; type: cell-based; conditions: 48 h
Procedure: Through 3-(4,5-dimethylthiazol-2-yl)-2,5-diphenyltetrazolium bromide (MTT) analysis, an effect of the anticancer peptide GJ101 on the cell viability of cancer cells was examined. For the cell viability analysis, AsPC-1 cells as a pancreatic cancer cell line were used. The pancreatic cancer cell line was prepared by dispensing the pancreatic cancer cell line at 1×10^3 cells/well (100 μL) and adhering thereto. To treat the anticancer peptide GJ101, the medium of the cells was replaced with a new medium (RPMI-1640). The pancreatic cancer cell lines with different adhering times were treated with the anticancer peptide GJ101 while increasing a concentration gradient, respectively. The pancreatic cancer cells treated with the anticancer peptide GJ101 were incubated for 24 or 48 hours, respectively. Each incubated pancreatic cancer cell was added with an MTT solution (5 mg/mL) and incubated for 90 minutes. After the end of the incubation, an optical density (OD) of pancreatic cancer cells was measured at 540 nm using a microplate reader (Molecular Devices, USA), and a maximum concentration (GI50) at which the growth of pancreatic cancer cells was reduced by half was confirmed. The result of examining the effect of the anticancer peptide GJ101 on the cell viability of tumor cells was illustrated in FIG. 5.

[2] = body weight and general condition in cancer animal model; type: in vivo; conditions: GJ101 25 mg/kg or 50 mg/kg
Procedure: To prepare a cancer animal model, AsPC-1 cells as a pancreatic cancer cell line were prepared by dissociation in a Hanks' balanced salt solution (HBSS) and a materigel. The prepared AsPC-1 cells were transplanted into the right flank of a nude mouse at an amount of 2×10^6 cells/10 μL/animal to prepare a cancer animal model.
For an experiments to be described later, the anticancer peptide GJ101 was administered at a concentration of 25 mg/kg or 50 mg/kg from day 16 after the preparation of the cancer animal model. In addition, a control group (Vehicle) was treated with 10% DMSO, 40% PEG400, and 50% DW.
A drug was administered to a cancer animal model, and then the body weight of the individual was measured once a day, and the result were illustrated in FIG. 6.

[3] = biological target: T1, KRAS G12V protein (UniProt P01116-2 1-188, limits assumed); assay: ITC, calculated from K and ΔH
T1 construct: also called mutant KRAS G12V; mutant Kirsten-RAS
Procedure: (§1) In order to examine the affinity of the anticancer peptide GJ101 to the KRAS G12V protein, isothermal titration heat was measured using isothermal titration calorimetry (ITC). Specifically, the KRAS G12V protein was prepared by dialysis with a buffer [20 mM Tris-HCl (pH 7.4), 100 mM NaCl, and 2 mM MgCl₂] so that the final concentration of the KRAS G12V protein was 0.1 mM. Next, the anticancer peptide GJ101 was prepared by diluting the anticancer peptide GJ101 to a concentration of 1.0 mM using the same buffer as described above. Isothermal titration heat measurement was performed by injecting the prepared KRAS G12V protein and anticancer peptide GJ101 into isothermal titration calorimetry. In the isothermal titration heat measurement, the anticancer peptide GJ101 was injected 20 times at 25° C. while stirring at a rate of 1,000 rpm. ΔS was calculated from a standard thermodynamic equation using the calculated K and ΔH values. The results of isothermal titration calorimetry were illustrated in FIG. 3.

[4] = biological target: T1, KRAS G12V protein; assay: ITC, GJ101 (1.0 mM) injected into KRAS G12V (0.1 mM), 25 °C
Procedure: as §1

| Molecule | GI50 [1] | moribund state or behavioral abnormalities [2] | ΔS [3] | Ka [4] | Kd [4] | ΔH [4] |
| --- | --- | --- | --- | --- | --- | --- |
| LYDVA [GJ101] | 16 µM | not observed | – | – | – | – |
| B1 | – | – | 19.3 cal/mol/deg | 86500 M⁻¹ | 12 µM | -0.994 kcal/mol |
